T1: mouse IL5 (mouse, UniProt P04401 21-133)
T1 sequence (looked up): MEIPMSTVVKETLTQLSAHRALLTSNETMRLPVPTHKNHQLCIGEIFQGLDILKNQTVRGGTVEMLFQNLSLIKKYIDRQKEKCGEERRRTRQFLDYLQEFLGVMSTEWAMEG


Assays:
mouse IL5 = biological target: T1, mouse IL5; experiment: ELISA, coated IL5, anti-HA detection
Description: After washing 5 times with PBST, 300 μL 1% BSA was added to each well for blocking at room temperature for 2 hours. […] Then the plate was washed for 5 times with PBST, 100 μL diluted mouse anti-HA antibody (1:2000 dilution) was added and incubated for 1 hour at 37° C. After washing 5 times with PBST, 100 μL diluted alkaline phosphatase modified anti-mouse antibody (1:2000 dilution) was added and incubated at 37° C. for 1 hour. Then the plate was washed with PBST for 5 times, developing solution was added, and the absorption value was measured at 405 nm wavelength by a microplate reader.

human IL5 [1] = biological target: T2, human IL5 (human, UniProt P05113 20-134, biotinylated (IL5-biotin) in Examples 2, 5, 6, 9 and 11; site not stated); experiment: BLI (Fortebio Red96), 1:1 global fit
T2 construct: also called interleukin 5; IL5 antigen protein

human IL5 [2] = biological target: T2, human IL5; experiment: Flow cytometry, blocking of IL5-biotin binding to HEK293F cells expressing IL5R
Description: Specifically, The HEK293F stable cells with high expression of IL5R were centrifuged at 1000 rpm for 5 min, and the supernatant was discarded. The cells were washed once with 5 mL PBS and then resuspended with 2 mL PBS. After counting, the cells were divided into a 96-well plate with 3×10⁵ cells per well. […] After centrifugation at 4° C. at 3000 rpm, 200 μL PBS was added to each well, and then centrifuged at 3000 rpm and 4° C. for 4 min after resuspension. The diluted SA-PE antibody (diluted at 0.3:100) was added and incubated at 4° C. for 20 min. After centrifugation at 4° C. for 4 min at 3000 rpm, the supernatant was discarded, and 200 μL PBS was added to each well to wash the cells twice. Then 200 μL PBS was added to resuspend the cells, transfer to a flow tube, and the PE signal of each sample was detected by flow cytometry.

human IL5 [3] = biological target: T2, human IL5; experiment: cell-based or functional assay

Binder	binding result (mouse IL5)	Kd (human IL5 [1]) [nM]	IC50 (human IL5 [2]) [mg/L]	IC50 of inhibition of the proliferation of TF-1 cells induced by IL5 (CCK8, OD450) (human IL5 [3]) [nM]
Nb66 (VHH, Camel nanobody, prokaryotic expression from the pMECS vector; It was detected with anti-HA antibody) VHH: QVQLQESGGGSVQAGGSLRLSCAASGYTVSSNMGWFRQAPGKEREGVAAIYPDGATYYADSVKGRFTISQDNAENTVYLQMNSLKPEDTAMYYCAADLAFNGLGTLALHGYWGQGTQVTVSS	no binding	< 1		
Nb21 (VHH, Camel nanobody, prokaryotic expression from the pMECS vector; also called Nb21-biotin) VHH: QVQLQESGGGSAQAGGSLKLSCVVSGYPYSGDYCMGWFRQAPGKEREGVAAFYTGGGSTYYADSVKGRFTTSQDNATSTFHLQMNSLKPEDTATYYCAADPWSVYGGSCGVKDPNPKAFNYWGQGTQVTVSS	no binding	< 1		
Nb92 (VHH, Camel nanobody, prokaryotic expression from the pMECS vector; It was detected with anti-HA antibody) VHH: QVQLQESGGGLVQPGGSLRLSCAASGFTFSNYYMSWVRQAPGKGLEWVSSISSDGSNTYYEDSVKGRFTISRDNANNTLYLQMNSLKSEDTALYHCATDLYDDSWYDHWGQGTQVTVSS	no binding	< 1		
Nb25 (VHH, Camel nanobody, prokaryotic expression from the pMECS vector; It was detected with anti-HA antibody) VHH: QVQLQESGGGSVQAGGSLRLSCAASEYTYSRYCMGWFRQVPGKEREGVATIDSDGSTSYADSVKGRFTISKDNAKNTLYLQMNSLKPEDTAMYYCAARYFYIATTGLRPCGEYEYNYWGQGTQVTVSS	no binding	< 1		
bivalent biepitope IL5 nanobody HuNb66-HuNb21 expressed by yeast (VHH, also called bivalent biepitopic antibody HuNb66-HuNb21) EVQLQESGGGLVQPGGSLRLSCAASGYTVSSNMGWFRQAPGKEREGVAAIYPDGATYYADSVKGRFTISRDNSENTLYLQMNSLRAEDTAMYYCAADLAFNGLGTLALHGYWGQGTLVTVSSGGGGSGGGGSGGGGSGGGGSEVQLQESGGGLVQPGGSLRLSCAASGYPYSGDYCMGWFRQAPGKEREGVAAFYTGGGSTYYADSVKGRFTISRDNSKNTLYLQMNSLRAEDTAVYYCAADPWSVYGGSCGVKDPNPKAFNYWGQGTLVTVSS			0.841	0.0512
